Patent US20140087995A1 (published 2014)
Numbered stars: 1 amine (or outer) side, 2 acyl side, 3 side chain; on linkers, the order of the positions; unused ones are H or OH. Bridge positions count the residues as written; N and C are the ends. Square brackets hold non-standard residues; d marks the D form. Side chains are listed from the residue outwards. Ends that are not written are not given here. * marks the point of attachment. C20 diacid = O=C(O)CCCCCCCCCCCCCCCCCCC(=O)*; γGlu = O=C(O)[C@H](CCC(=O)[*:2])N[*:1]; AEEA = NCCOCCOCC(=O)O

How the values were obtained:
[1] = target: T1, rat amylin receptor (rat calcitonin receptor + rat RAMP 3) (rat, UniProt P32214 25-516; Q9JJ73 23-147); assay: SPA competition vs 125I-rat amylin, membranes (Assay VI)
T1 construct: whole, on cells; Membranes prepared from transiently transfected BHK tk'ts 13 cells; also called rAmylin-R; rat amylin 3(a) receptor
T1 sequence (looked up) 1: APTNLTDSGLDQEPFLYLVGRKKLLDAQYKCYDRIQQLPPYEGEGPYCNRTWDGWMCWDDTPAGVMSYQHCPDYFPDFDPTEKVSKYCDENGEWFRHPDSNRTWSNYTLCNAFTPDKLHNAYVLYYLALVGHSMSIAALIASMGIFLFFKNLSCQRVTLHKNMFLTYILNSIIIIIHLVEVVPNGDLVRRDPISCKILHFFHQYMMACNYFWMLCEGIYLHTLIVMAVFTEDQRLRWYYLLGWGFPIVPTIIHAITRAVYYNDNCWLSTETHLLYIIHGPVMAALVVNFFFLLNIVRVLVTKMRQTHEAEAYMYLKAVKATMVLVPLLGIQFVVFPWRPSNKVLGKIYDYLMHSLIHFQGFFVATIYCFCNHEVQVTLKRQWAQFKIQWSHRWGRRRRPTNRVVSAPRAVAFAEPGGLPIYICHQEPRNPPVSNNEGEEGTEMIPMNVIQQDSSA
T1 sequence (looked up) 2: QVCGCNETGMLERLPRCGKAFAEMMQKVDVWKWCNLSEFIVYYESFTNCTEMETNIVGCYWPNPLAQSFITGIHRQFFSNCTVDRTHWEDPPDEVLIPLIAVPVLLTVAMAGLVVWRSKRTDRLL

rat calcitonin receptor [2] = target: T2, rat calcitonin receptor (rat, UniProt P32214 25-516); assay: SPA competition vs 125I-calcitonin, membranes (Assay VIII)
T2 construct: whole, on cells; Membranes prepared from transiently transfected BHK tk'ts 13 cells; also called rCTR; rat calcitonin (a) receptor
T2 sequence (looked up): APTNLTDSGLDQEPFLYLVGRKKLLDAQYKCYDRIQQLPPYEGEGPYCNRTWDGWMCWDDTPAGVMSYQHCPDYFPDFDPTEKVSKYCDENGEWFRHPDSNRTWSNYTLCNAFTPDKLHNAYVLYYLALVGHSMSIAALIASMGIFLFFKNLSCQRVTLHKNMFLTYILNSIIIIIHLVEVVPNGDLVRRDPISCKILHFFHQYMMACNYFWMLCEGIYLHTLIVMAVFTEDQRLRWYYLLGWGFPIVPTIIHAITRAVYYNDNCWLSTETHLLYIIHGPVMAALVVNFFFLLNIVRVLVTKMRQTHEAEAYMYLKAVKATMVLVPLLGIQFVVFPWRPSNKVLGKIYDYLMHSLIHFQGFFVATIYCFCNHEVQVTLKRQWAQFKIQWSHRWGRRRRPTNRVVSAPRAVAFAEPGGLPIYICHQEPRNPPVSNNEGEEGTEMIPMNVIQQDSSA

rat calcitonin receptor [3] = target: T3, rat calcitonin receptor (rat, UniProt P32214 25-516); assay: ratio IC50 rat calcitonin receptor / IC50 rat amylin receptor
T3 construct: whole, on cells; Cell membranes of transiently transfected BHK tk'ts 13 cells (Assay VIII); also called rCTR; rCT
T3 sequence (looked up): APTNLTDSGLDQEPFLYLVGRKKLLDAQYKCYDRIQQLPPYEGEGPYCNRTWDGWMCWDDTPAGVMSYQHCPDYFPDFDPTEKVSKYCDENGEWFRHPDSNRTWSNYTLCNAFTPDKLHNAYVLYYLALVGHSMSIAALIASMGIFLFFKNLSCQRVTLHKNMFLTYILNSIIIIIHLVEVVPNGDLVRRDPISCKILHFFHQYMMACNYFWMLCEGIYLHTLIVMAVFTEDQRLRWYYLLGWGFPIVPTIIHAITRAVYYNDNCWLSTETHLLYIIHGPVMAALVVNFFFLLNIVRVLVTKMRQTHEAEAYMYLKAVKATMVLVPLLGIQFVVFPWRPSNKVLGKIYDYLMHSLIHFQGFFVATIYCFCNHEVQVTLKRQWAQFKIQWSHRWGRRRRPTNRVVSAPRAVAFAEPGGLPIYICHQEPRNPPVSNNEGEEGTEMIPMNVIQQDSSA

[4] = target: T4, rat amylin receptor (rat calcitonin receptor + rat RAMP 3) (rat, UniProt P32214 25-516; Q9JJ73 23-147); assay: SPA competition vs 125I-rat amylin, membranes with rat CTR + rat RAMP3 (Assay VI)
T4 construct: whole, on cells; Cell membranes of transiently transfected BHK tk'ts 13 cells (Assay VI); also called rAmylin-R; rat amylin 3(a) receptor
T4 sequence (looked up) 1: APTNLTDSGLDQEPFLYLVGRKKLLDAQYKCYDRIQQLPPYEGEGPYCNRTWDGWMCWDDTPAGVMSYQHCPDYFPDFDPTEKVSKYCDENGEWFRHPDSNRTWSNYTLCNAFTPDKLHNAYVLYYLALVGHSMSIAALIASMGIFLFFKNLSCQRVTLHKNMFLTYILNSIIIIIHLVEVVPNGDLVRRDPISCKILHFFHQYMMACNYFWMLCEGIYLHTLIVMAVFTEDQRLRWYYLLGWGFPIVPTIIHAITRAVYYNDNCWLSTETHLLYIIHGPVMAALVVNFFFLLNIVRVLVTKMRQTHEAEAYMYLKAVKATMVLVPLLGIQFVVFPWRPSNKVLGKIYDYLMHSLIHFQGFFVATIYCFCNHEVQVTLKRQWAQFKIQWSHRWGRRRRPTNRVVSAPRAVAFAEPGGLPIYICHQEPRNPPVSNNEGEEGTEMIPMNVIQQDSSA
T4 sequence (looked up) 2: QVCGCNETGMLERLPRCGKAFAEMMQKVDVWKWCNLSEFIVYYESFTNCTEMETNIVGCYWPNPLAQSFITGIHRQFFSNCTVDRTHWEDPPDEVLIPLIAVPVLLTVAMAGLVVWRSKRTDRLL

rat calcitonin receptor [5] = target: T3, rat calcitonin receptor; assay: SPA competition vs 125I-calcitonin, membranes with rat CTR (Assay VIII)

| Binder | IC50 [1] [nM] | IC50 (rat calcitonin receptor [2]) [nM] | Ratio rCT/rAmylin binding (rat calcitonin receptor [3]) | IC50 [4] [nM] | IC50 (rat calcitonin receptor [5]) [nM] |
| --- | --- | --- | --- | --- | --- |
| K([γGlu-γGlu-C20 diacid])CNTATCATQRLA[dD]FLRHSSPNFGAIPSSTNVGSRTY-NH2 (disulfide 2-7; N-terminus assumed; SMILES CC[C@H](C)[C@H](NC(=O)[C@H](C)NC(=O)CNC(=O)[C@H](Cc1ccccc1)NC(=O)[C@H](CC(N)=O)NC(=O)[C@@H]1CCCN1C(=O)[C@H](CO)NC(=O)[C@H](CO)NC(=O)[C@H](Cc1c[nH]cn1)NC(=O)[C@H](CCCNC(=N)N)NC(=O)[C@H](CC(C)C)NC(=O)[C@H](Cc1ccccc1)NC(=O)[C@@H](CC(=O)O)NC(=O)[C@H](C)NC(=O)[C@H](CC(C)C)NC(=O)[C@H](CCCNC(=N)N)NC(=O)[C@H](CCC(N)=O)NC(=O)[C@@H](NC(=O)[C@H](C)NC(=O)[C@@H]1CSSC[C@H](NC(=O)[C@@H](N)CCCCNC(=O)CC[C@H](NC(=O)CC[C@H](NC(=O)CCCCCCCCCCCCCCCCCCC(=O)O)C(=O)O)C(=O)O)C(=O)N[C@@H](CC(N)=O)C(=O)N[C@@H]([C@@H](C)O)C(=O)N[C@@H](C)C(=O)N[C@@H]([C@@H](C)O)C(=O)N1)[C@@H](C)O)C(=O)N1CCC[C@H]1C(=O)N[C@@H](CO)C(=O)N[C@@H](CO)C(=O)N[C@H](C(=O)N[C@@H](CC(N)=O)C(=O)N[C@H](C(=O)NCC(=O)N[C@@H](CO)C(=O)N[C@@H](CCCNC(=N)N)C(=O)N[C@H](C(=O)N[C@@H](Cc1ccc(O)cc1)C(N)=O)[C@@H](C)O)C(C)C)[C@@H](C)O) | 1.69 | 536 |  |  |  |
| K([AEEA-γGlu-C20 diacid])CNTATCATQRLANFLRHSSPNFGAIPPSTPVGSNTY-NH2 (disulfide 2-7, Acylated analogue of human amylin; also called compound 53) |  |  | 130 | 0.084 | 10.9 |
| K([AEEA-γGlu-C20 diacid])CNTATCATQRLANFLRHSSPNFGAIPPSTNVGPNTY-NH2 (disulfide 2-7; N-terminus assumed; SMILES CC[C@H](C)[C@H](NC(=O)[C@H](C)NC(=O)CNC(=O)[C@H](Cc1ccccc1)NC(=O)[C@H](CC(N)=O)NC(=O)[C@@H]1CCCN1C(=O)[C@H](CO)NC(=O)[C@H](CO)NC(=O)[C@H](Cc1c[nH]cn1)NC(=O)[C@H](CCCNC(=N)N)NC(=O)[C@H](CC(C)C)NC(=O)[C@H](Cc1ccccc1)NC(=O)[C@H](CC(N)=O)NC(=O)[C@H](C)NC(=O)[C@H](CC(C)C)NC(=O)[C@H](CCCNC(=N)N)NC(=O)[C@H](CCC(N)=O)NC(=O)[C@@H](NC(=O)[C@H](C)NC(=O)[C@@H]1CSSC[C@H](NC(=O)[C@@H](N)CCCCNC(=O)COCCOCCNC(=O)CC[C@H](NC(=O)CCCCCCCCCCCCCCCCCCC(=O)O)C(=O)O)C(=O)N[C@@H](CC(N)=O)C(=O)N[C@@H]([C@@H](C)O)C(=O)N[C@@H](C)C(=O)N[C@@H]([C@@H](C)O)C(=O)N1)[C@@H](C)O)C(=O)N1CCC[C@H]1C(=O)N1CCC[C@H]1C(=O)N[C@@H](CO)C(=O)N[C@H](C(=O)N[C@@H](CC(N)=O)C(=O)N[C@H](C(=O)NCC(=O)N1CCC[C@H]1C(=O)N[C@@H](CC(N)=O)C(=O)N[C@H](C(=O)N[C@@H](Cc1ccc(O)cc1)C(N)=O)[C@@H](C)O)C(C)C)[C@@H](C)O, Acylated analogue of human amylin; also called compound 55) |  |  | 77.2 | 0.081 | 6.25 |
